Laboratory results from article PMC4125734 (Molecular & Cellular Proteomics : MCP, 2014).
Values joined by “and” are separate entries in the source; they are usually repeats but may differ in a detail not shown here. Identical values can stand only once. Like-named read-outs stand apart in the source and are kept apart here.

Columns and labels:
14-3-3γ [1] = target: 14-3-3γ (UniProt P61981); test: native MS
14-3-3γ [2] = target: 14-3-3γ (UniProt P61981); test: SPR
14-3-3γ [3] = target: 14-3-3γ (UniProt P61981); test: negative-stain electron microscopy
14-3-3γ [4] = target: 14-3-3γ (UniProt P61981); test: native MS; remark: listed apart in the source
14-3-3γ [5] = target: 14-3-3γ (UniProt P61981); test: negative-stain electron microscopy; remark: listed apart in the source
14-3-3γ [6] = target: 14-3-3γ (UniProt P61981); test: native MS; remark: listed apart in the source
GST-14-3-3γ [7] = target: GST-14-3-3γ (UniProt P61981); test: SPR
GST-14-3-3γ [8] = target: GST-14-3-3γ (UniProt P61981); test: SPR; remark: listed apart in the source
GST-14-3-3γ [9] = target: GST-14-3-3γ (UniProt P61981); test: SPR; remark: listed apart in the source
native MS = target: the molecule itself; test: native MS

stoichiometry N (14-3-3γ dimers per TH tetramer) (14-3-3γ [1]) | Kd (14-3-3γ [2]) [nM] | dissociation rate constant of the smaller, rapidly dissociating population (14-3-3γ [2]) [s⁻¹] | koff (14-3-3γ [2]) [s⁻¹] | kon (14-3-3γ [2]) [M⁻¹ s⁻¹] | stoichiometry N (14-3-3γ dimers per TH tetramer) (14-3-3γ [3]) | stoichiometry N (14-3-3γ dimers per TH tetramer) (14-3-3γ [4]) | stoichiometry N (14-3-3γ dimers per TH tetramer) (14-3-3γ [5]) | stoichiometry N (14-3-3γ dimers per TH tetramer) (14-3-3γ [6]) | kon (GST-14-3-3γ [7]) [M⁻¹ s⁻¹] | kon (GST-14-3-3γ [8]) [M⁻¹ s⁻¹] | koff (GST-14-3-3γ [9]) [s⁻¹] | kon (GST-14-3-3γ [9]) [M⁻¹ s⁻¹] | Molecule | stoichiometry N (native MS)
2 | 2.1 | 0.018 | 0.00036 | 159000 | – | – | – | – | – | – | – | – | human tyrosine hydroxylase isoform 1 phosphorylated on both Ser19 and Ser40 (TH-pS19pS40) (from UniProt P07101-3 1-497) (enzyme) | –
2 | – | 0.018 | – | 144000 | 1 | 1 | 2 | 2 | – | – | – | – | human tyrosine hydroxylase isoform 1 phosphorylated on Ser19 (TH-pS19), full stoichiometry (from UniProt P07101-3 1-497) (enzyme) | –
1 and 2 | 0.57 | 0.019 | 0.00045 to 0.00051 | 780000 | – | – | – | – | 1.8e+06 | 1.2e+06 | 0.00063 to 0.00069 | 2.4e+06 | human tyrosine hydroxylase isoform 1 phosphorylated on Ser19 to low stoichiometry (TH-pS19L) (from UniProt P07101-3 1-497) (enzyme) | –
– | – | – | – | – | – | – | – | – | – | – | – | – | 14-3-3γ (natural protein) VDREQLVQKARLAEQAERYDDMAAAMKNVTELNEPLSNEERNLLSVAYKNVVGARRSSWRVISSIEQKTSADGNEKKIEMVRAYREKIEKELEAVCQDVLSLLDNYLIKNCSETQYESKVFYLKMKGDYYRYLAEVATGEKRATVVESSEKAYSEAHEISKEHMQPTHPIRLGLALNYSVFYYEIQNAPEQACHLAKTAFDDAIAELDTLNEDSYKDSTLIMQLLRDNLTLWTSDQQDDDGGEGNN | 2
